Data from article doi:10.1101/091884 (bioRxiv, 2016).
One block for each molecule: values may come before it.

Tests used:
Assay in all cases: SEC + other: SDS-PAGE
[1] = target: B. licheniformis BslA_(40-17g) (Bacillus licheniformis DSM13)
[2] = target: B. amyloliquefaciens BslA_(42-181) (Bacillus amyloliquefaciens FZB42)
[3] = target: B. pumilus BslA_(37-177) (Bacillus pumilus SAFR-032)
SEC + other: SDS-PAGE = target: the molecule itself

Molecule: B. licheniformis BslA_(40-17g) (domain or fragment)
stoichiometry N [1]: 2

B1: B. subtilis BslA_(42-181) (domain or fragment, Bacillus subtilis, UniProt P71014 42-181, looked up)
chain: MRTQSTASLFATITGASKTEWSFSDIELTYRPNTLLSLGVMEFTLPSGFTANTKDTLNGNALRTTQILNNGKTVRVPLALDLLGAGEFKLKLNNKTLPAAGTYTFRAENKSLSIGNKFYAEASIDVAKRSTPPTQPCGCN
stoichiometry N (SEC + other: SDS-PAGE): 2

Further lines, results first:

stoichiometry N [2]: 2
Molecule: B. amyloliquefaciens BslA_(42-181) (domain or fragment)

stoichiometry N [3]: 2
Molecule: B. pumilus BslA_(37-177) (domain or fragment)
